The values below come from US20240108745A1 (MEDILINK THERAPEUTICS SUZHOU, published 2024).

In one experiment the target is T1, rat Her3-his (rat, UniProt Q62799 20-643).
T1 construct: also called rat Her3 protein
The experiment is described as follows: ELISA, rat Her3-his coated at 1 µg/mL, anti-human Fc-HRP. As to the method:
(§1) The affinity of anti-Her3 antibody to Her3 protein was detected by ELISA experimental method. Specific experimental procedures: human Her3-his, monkey Her3-his protein and rat Her3-his was diluted with carbonate buffer with a pH value of 9.6 to a final concentration of 1 μg/mL, and then added to 96-well enzyme labelling wells at 100 μL/well, and coated overnight at 4° C.; the coating solution was discarded, and the plate was washed once with PBST, then 100 μL of PBS (containing 2% BSA) was added to each well, and blocked at 37° C. for 1 h; then, 100 μL of anti-Her3 antibody diluted with PBS (containing 2% BSA) ((starting at 1 μg, 3 folds serial dilution, in duplicate wells) was added to each well, and then incubated at 37° C. for 2 h; the plate was washed three times with PBST, and horseradish peroxidase-labeled anti-human Fc antibody (diluted at 1:10000 with PBS) was added at 100 μL/well, then reacted for 1 h at 37° C. The plate was washed 5 times with PBST. TMB chromogenic solution was added at 100 μL/well and incubated at 37° C. for 7 min to develop color, and then the stop solution was added at 50 μL/well to terminate the reaction.

The next experiment addresses T2, monkey Her3-his (monkey).
T2 chain: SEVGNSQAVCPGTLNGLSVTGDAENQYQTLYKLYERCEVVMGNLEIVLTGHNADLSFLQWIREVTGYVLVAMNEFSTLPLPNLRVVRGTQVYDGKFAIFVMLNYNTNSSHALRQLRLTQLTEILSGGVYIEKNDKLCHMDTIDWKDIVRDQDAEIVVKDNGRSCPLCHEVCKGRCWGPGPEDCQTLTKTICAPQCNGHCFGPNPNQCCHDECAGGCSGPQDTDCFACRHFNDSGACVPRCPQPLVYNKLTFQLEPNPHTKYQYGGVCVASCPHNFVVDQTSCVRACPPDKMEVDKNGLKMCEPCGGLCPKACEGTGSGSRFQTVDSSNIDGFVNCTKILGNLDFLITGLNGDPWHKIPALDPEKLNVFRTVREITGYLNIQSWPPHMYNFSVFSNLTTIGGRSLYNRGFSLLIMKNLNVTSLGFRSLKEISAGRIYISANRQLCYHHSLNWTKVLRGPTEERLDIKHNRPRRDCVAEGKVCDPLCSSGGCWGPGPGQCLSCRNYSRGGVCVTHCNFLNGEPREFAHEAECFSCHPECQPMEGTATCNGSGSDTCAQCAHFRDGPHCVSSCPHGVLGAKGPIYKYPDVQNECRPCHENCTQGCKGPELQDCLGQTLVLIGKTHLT
The experiment in a line: ELISA, antigen coated at 1 µg/mL, antibody titrated, anti-human Fc-HRP. As to the method: as §1
A general note: An ELISA detects its analyte on a solid surface through an enzyme-linked reagent.

The target of another experiment is T3, human Her3-his (human, UniProt P21860 20-643).
T3 construct: range 1-643; also called human Her3 protein
The experiment is described as above. As to the method: as §1

T1 sequence (Q62799 other isoform, or with tags, fused parts or gaps): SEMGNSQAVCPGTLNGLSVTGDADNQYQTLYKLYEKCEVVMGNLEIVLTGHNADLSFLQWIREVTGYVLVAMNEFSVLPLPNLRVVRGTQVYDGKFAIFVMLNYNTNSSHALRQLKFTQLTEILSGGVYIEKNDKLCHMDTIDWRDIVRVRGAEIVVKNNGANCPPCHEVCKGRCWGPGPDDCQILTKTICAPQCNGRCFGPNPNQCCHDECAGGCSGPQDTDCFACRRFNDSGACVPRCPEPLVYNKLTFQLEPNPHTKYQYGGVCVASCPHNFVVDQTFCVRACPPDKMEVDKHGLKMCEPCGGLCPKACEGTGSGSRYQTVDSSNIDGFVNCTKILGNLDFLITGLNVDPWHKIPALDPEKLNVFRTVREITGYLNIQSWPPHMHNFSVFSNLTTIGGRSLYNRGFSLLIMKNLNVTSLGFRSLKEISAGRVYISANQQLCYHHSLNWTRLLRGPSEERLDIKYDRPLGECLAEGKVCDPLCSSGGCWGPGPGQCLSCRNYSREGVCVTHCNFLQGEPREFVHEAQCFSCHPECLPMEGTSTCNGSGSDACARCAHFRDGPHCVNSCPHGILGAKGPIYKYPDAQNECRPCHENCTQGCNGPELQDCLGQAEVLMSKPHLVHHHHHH

B1: anti-Her3 antibody 202-2-1 (antibody, human IgG1, kappa, V domains shown)
VH: EVQLVESGGGVVQPGRSLRLSCAASGFTFSTYGMHWVRQAPGKGLEWVAVIWYDVSHKYYADSVKGRFTISRDNSKNTLSLQMNSLRAEDTAVYYCARDWGDPDAFDIWGQGTMVTVSS
VL: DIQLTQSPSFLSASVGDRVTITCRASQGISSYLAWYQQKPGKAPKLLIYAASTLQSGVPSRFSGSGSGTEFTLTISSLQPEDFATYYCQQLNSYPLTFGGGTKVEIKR
notes: expressed in HEK293F; also called Her3mAb
As a reminder, the EC50 is the midpoint of the concentration-response curve. For the molecule B1, in the experiment with rat Her3-his, the binding result is reported as “no binding”. The EC50 in the experiment with monkey Her3-his turned out to be 0.0159 nM; with human Her3-his it was 0.021 nM.
